Measured values: PMC7356358
Several values for one entry are separate records, joined by “and”; a condition that tells them apart may be missing. Identical values can stand only once.

How the values were obtained:
[1] = target: KPf, chimeric protein of the ATPase domain of DnaK and the substrate binding domain of PfHsp70-1 (Escherichia coli | Plasmodium falciparum); experiment: SPR
[2] = tested on: Nc1ncnc2c1ncn2[C@@H]1O[C@H](COP(=O)(O)OP(=O)(O)OP(=O)(O)O)[C@@H](O)[C@H]1O; experiment: purified protein, by the assay type; conditions: pH 7.5
Method: Hsp70 proteins at final concentration of 0.4 μM were each incubated for 5 min in buffer HKMD (10 mM HEPES-KOH pH 7.5, 100 mM KCl, 2 mM MgCl2 and 0.5 mM DTT). The reaction was initiated by the addition of ATP at various concentrations (0–5 mM) and samples were analyzed every 30 min for 4 h.
Standard deviations shown represent three independent assays made using separate protein purification batches.
validated by one way ANOVA test (p< 0.05 *) and (p<0.01**).

Row | Substance | kon [1] | Km [2] [µM]
1 | KPf, chimeric protein of the ATPase domain of DnaK and the substrate binding domain of PfHsp70-1 | 154 M⁻¹ s⁻¹ and 132 M⁻¹ s⁻¹ and 142 M⁻¹ s⁻¹ | 
2 | PfHsp70-1 (Plasmodium falciparum 3D7) |  | 370.8
